In experiment [1] the target is HTkC (TK1040), face-to-face (FtF) histone from Thermococcus kodakarensis (Thermococcus kodakarensis). Description: SEC-MALS. (In gel filtration, larger molecules generally elute earlier.)
Experiment [2] addresses HTkC R45A (Thermococcus kodakarensis). Briefly: SEC-MALS.

Turning to “HTkC (TK1040), face-to-face (FtF) histone from Thermococcus kodakarensis (natural protein)”, the stoichiometry N in experiment [1] was found to be 4.

Regarding HTkC R45A (natural protein), in experiment [2], the stoichiometry N was determined as 2.

The term stoichiometry N denotes the number of molecules, sites or subunits per partner or assembly.

Source of the values: publication doi:10.64898/2025.12.06.692711.
